Laboratory results: US9993529B2, “Stable formulations of a hyaluronan-degrading enzyme” (Halozyme, Inc., priority 2011, dated 2018)

Experiment: RP-HPLC insulin apparent solubility / percent recovery (content)
Settings: 7 days at 2-8° C.
Method: Apparent solubility was measured as the percent insulin recovery as compared to the initial formulations/conditions.
Samples were prepared by withdrawing 100 μL from each vial at every time point and centrifuging prior to loading. Samples were stored in an autosampler at 4° C. prior to use, and were considered stable for 3 days after preparation. All samples were tested in duplicate.
For insulin, 20 μL was injected for each HPLC run.
To determine the apparent solubility, the peak area of insulin/insulin analog main peak and desamido peak were integrated and combined together to calculate the percentage relative to the standards. […] The data were processed using Design-Expert® 7.0 (StatEase) and the “historical data” feature. Insulin percent purity was expressed as the percent of main insulin versus all insulin species.

## Aspart: AspB28 human insulin analog
0.2% methylparaben + […] m-cresol, pH 6.6, NaCl 50 mM
  Solubility of Insulin Aspart: 57.7%
0.2% methylparaben + […] m-cresol, pH 6.6, NaCl 80 mM
  Solubility of Insulin Aspart: 32.1%
0.2% methylparaben + […] m-cresol, pH 6.6, NaCl 110 mM
  Solubility of Insulin Aspart: 21.1%
0.2% methylparaben + […] m-cresol, pH 6.6, NaCl 140 mM
  Solubility of Insulin Aspart: 14.7%
0.2% methylparaben + […] m-cresol, pH 6.8, NaCl 50 mM
  Solubility of Insulin Aspart: 97.2%
0.2% methylparaben + […] m-cresol, pH 6.8, NaCl 80 mM
  Solubility of Insulin Aspart: 84.1%
0.2% methylparaben + […] m-cresol, pH 6.8, NaCl 110 mM
  Solubility of Insulin Aspart: 54.2%
0.2% methylparaben + […] m-cresol, pH 6.8, NaCl 140 mM
  Solubility of Insulin Aspart: 32.2%
0.2% methylparaben + […] m-cresol, pH 7.0, NaCl 50 mM
  Solubility of Insulin Aspart: 98.7%
0.2% methylparaben + […] m-cresol, pH 7.0, NaCl 80 mM
  Solubility of Insulin Aspart: 100.2%
0.2% methylparaben + […] m-cresol, pH 7.0, NaCl 110 mM
  Solubility of Insulin Aspart: 96.3%
0.2% methylparaben + […] m-cresol, pH 7.0, NaCl 140 mM
  Solubility of Insulin Aspart: 67.9%
0.2% methylparaben + […] m-cresol, pH 7.2, NaCl 50 mM
  Solubility of Insulin Aspart: 99.0%
0.2% methylparaben + […] m-cresol, pH 7.2, NaCl 80 mM
  Solubility of Insulin Aspart: 100.2%
0.2% methylparaben + […] m-cresol, pH 7.2, NaCl 110 mM
  Solubility of Insulin Aspart: 99.5%
0.2% methylparaben + […] m-cresol, pH 7.2, NaCl 140 mM
  Solubility of Insulin Aspart: 101.6%
0.2% methylparaben + […] m-cresol, pH 7.4, NaCl 50 mM
  Solubility of Insulin Aspart: 99.1%
0.2% methylparaben + […] m-cresol, pH 7.4, NaCl 80 mM
  Solubility of Insulin Aspart: 100.5%
0.2% methylparaben + […] m-cresol, pH 7.4, NaCl 110 mM
  Solubility of Insulin Aspart: 99.6%
0.2% methylparaben + […] m-cresol, pH 7.4, NaCl 140 mM
  Solubility of Insulin Aspart: 99.6%
0.2% methylparaben + […] m-cresol, pH 7.6, NaCl 50 mM
  Solubility of Insulin Aspart: 99.3%
0.2% methylparaben + […] m-cresol, pH 7.6, NaCl 80 mM
  Solubility of Insulin Aspart: 100.6%
0.2% methylparaben + […] m-cresol, pH 7.6, NaCl 110 mM
  Solubility of Insulin Aspart: 99.8%
0.2% methylparaben + […] m-cresol, pH 7.6, NaCl 140 mM
  Solubility of Insulin Aspart: 99.8%
0.2% phenol + […] m-cresol, pH 6.6, NaCl 50 mM
  Solubility of Insulin Aspart: 91.8%
0.2% phenol + […] m-cresol, pH 6.6, NaCl 80 mM
  Solubility of Insulin Aspart: 59.2%
0.2% phenol + […] m-cresol, pH 6.6, NaCl 110 mM
  Solubility of Insulin Aspart: 58.0%
0.2% phenol + […] m-cresol, pH 6.6, NaCl 140 mM
  Solubility of Insulin Aspart: 39.3%
0.2% phenol + […] m-cresol, pH 6.8, NaCl 50 mM
  Solubility of Insulin Aspart: 98.8%
0.2% phenol + […] m-cresol, pH 6.8, NaCl 80 mM
  Solubility of Insulin Aspart: 91.8%
0.2% phenol + […] m-cresol, pH 6.8, NaCl 110 mM
  Solubility of Insulin Aspart: 72.8%
0.2% phenol + […] m-cresol, pH 6.8, NaCl 140 mM
  Solubility of Insulin Aspart: 50.9%
0.2% phenol + […] m-cresol, pH 7.0, NaCl 50 mM
  Solubility of Insulin Aspart: 99.1%
0.2% phenol + […] m-cresol, pH 7.0, NaCl 80 mM
  Solubility of Insulin Aspart: 100.6%
0.2% phenol + […] m-cresol, pH 7.0, NaCl 110 mM
  Solubility of Insulin Aspart: 99.9%
0.2% phenol + […] m-cresol, pH 7.0, NaCl 140 mM
  Solubility of Insulin Aspart: 88.9%
0.2% phenol + […] m-cresol, pH 7.2, NaCl 50 mM
  Solubility of Insulin Aspart: 99.1%
0.2% phenol + […] m-cresol, pH 7.2, NaCl 80 mM
  Solubility of Insulin Aspart: 100.5%
0.2% phenol + […] m-cresol, pH 7.2, NaCl 110 mM
  Solubility of Insulin Aspart: 100.0%
0.2% phenol + […] m-cresol, pH 7.2, NaCl 140 mM
  Solubility of Insulin Aspart: 99.7%
0.2% phenol + […] m-cresol, pH 7.4, NaCl 50 mM
  Solubility of Insulin Aspart: 99.2%
0.2% phenol + […] m-cresol, pH 7.4, NaCl 80 mM
  Solubility of Insulin Aspart: 100.6%
0.2% phenol + […] m-cresol, pH 7.4, NaCl 110 mM
  Solubility of Insulin Aspart: 100.0%
0.2% phenol + […] m-cresol, pH 7.4, NaCl 140 mM
  Solubility of Insulin Aspart: 99.7%
0.2% phenol + […] m-cresol, pH 7.6, NaCl 50 mM
  Solubility of Insulin Aspart: 99.2%
0.2% phenol + […] m-cresol, pH 7.6, NaCl 80 mM
  Solubility of Insulin Aspart: 100.8%
0.2% phenol + […] m-cresol, pH 7.6, NaCl 110 mM
  Solubility of Insulin Aspart: 100.2%
0.2% phenol + […] m-cresol, pH 7.6, NaCl 140 mM
  Solubility of Insulin Aspart: 99.8%
[…] phenol + […] m-cresol, pH 6.6, NaCl 50 mM
  Solubility of Insulin Aspart: 97.9%
[…] phenol + […] m-cresol, pH 6.6, NaCl 80 mM
  Solubility of Insulin Aspart: 86.3%
[…] phenol + […] m-cresol, pH 6.6, NaCl 110 mM
  Solubility of Insulin Aspart: 54.4%
[…] phenol + […] m-cresol, pH 6.6, NaCl 140 mM
  Solubility of Insulin Aspart: 38.3%
[…] phenol + […] m-cresol, pH 6.8, NaCl 50 mM
  Solubility of Insulin Aspart: 99.8%
[…] phenol + […] m-cresol, pH 6.8, NaCl 80 mM
  Solubility of Insulin Aspart: 97.9%
[…] phenol + […] m-cresol, pH 6.8, NaCl 110 mM
  Solubility of Insulin Aspart: 97.5%
[…] phenol + […] m-cresol, pH 6.8, NaCl 140 mM
  Solubility of Insulin Aspart: 60.5%
[…] phenol + […] m-cresol, pH 7.0, NaCl 50 mM
  Solubility of Insulin Aspart: 99.7%
[…] phenol + […] m-cresol, pH 7.0, NaCl 80 mM
  Solubility of Insulin Aspart: 99.3%
[…] phenol + […] m-cresol, pH 7.0, NaCl 110 mM
  Solubility of Insulin Aspart: 99.3%
[…] phenol + […] m-cresol, pH 7.0, NaCl 140 mM
  Solubility of Insulin Aspart: 100.2%
[…] phenol + […] m-cresol, pH 7.2, NaCl 50 mM
  Solubility of Insulin Aspart: 99.1%
[…] phenol + […] m-cresol, pH 7.2, NaCl 80 mM
  Solubility of Insulin Aspart: 99.2%
[…] phenol + […] m-cresol, pH 7.2, NaCl 110 mM
  Solubility of Insulin Aspart: 99.2%
[…] phenol + […] m-cresol, pH 7.2, NaCl 140 mM
  Solubility of Insulin Aspart: 101.1%
[…] phenol + […] m-cresol, pH 7.4, NaCl 50 mM
  Solubility of Insulin Aspart: 100.0%
[…] phenol + […] m-cresol, pH 7.4, NaCl 80 mM
  Solubility of Insulin Aspart: 99.6%
[…] phenol + […] m-cresol, pH 7.4, NaCl 110 mM
  Solubility of Insulin Aspart: 99.5%
[…] phenol + […] m-cresol, pH 7.4, NaCl 140 mM
  Solubility of Insulin Aspart: 101.1%
[…] phenol + […] m-cresol, pH 7.6, NaCl 50 mM
  Solubility of Insulin Aspart: 100.1%
[…] phenol + […] m-cresol, pH 7.6, NaCl 80 mM
  Solubility of Insulin Aspart: 99.7%
[…] phenol + […] m-cresol, pH 7.6, NaCl 110 mM
  Solubility of Insulin Aspart: 99.4%
[…] phenol + […] m-cresol, pH 7.6, NaCl 140 mM
  Solubility of Insulin Aspart: 101.1%
